Experiment [1] deals with IgG1 heavy chain with CH3 construct 2 (K392D, K409D) (human) [IgG part: P01857]. Put plainly: native MS; transfection D: vector VI alone (tetanus VH, construct 2).
Experiment [2] shares this target. Put plainly: native MS; transfection C: vector V alone (fibrinogen VH, construct 2).
Experiment [3] shares this target. Put plainly: SDS-PAGE of protein A-purified supernatant; construct expressed alone.
Experiment [4] deals with IgG1 heavy chain with CH3 construct 3 (K392D, K409D, K439D) (human) [IgG part: P01857]. The experiment can be described thus: native MS; transfection E: vector VII alone (fibrinogen VH, construct 3).
Experiment [5] shares this target. Put plainly: native MS; transfection F: vector VIII alone (tetanus VH, construct 3).
The target is the same in experiment [6]. Put plainly: SDS-PAGE of protein A-purified supernatant; construct expressed alone.
Experiment [7] concerns the target IgG1 heavy chain with CH3 construct 6 (T366W) (human) [IgG part: P01857]. Put plainly: native MS; transfection P: vector IX alone (tetanus VH, construct 6).
The target is the same in experiment [8]. Put plainly: SDS-PAGE of protein A-purified supernatant; construct expressed alone.
Experiment [9] addresses IgG1 heavy chain with CH3 construct 7 (T366S, L368A, Y407V) (human) [IgG part: P01857]. The experiment can be described thus: native MS; transfection Q: vector X alone (thyroglobulin VH, construct 7).
Experiment [10] shares this target. Put plainly: SDS-PAGE of protein A-purified supernatant; construct expressed alone.
The target in experiment [11] is IgG1 heavy chain with CH3 construct 70 (L351E, Y349E) (human) [IgG part: P01857]. The experiment can be described thus: native MS; combination 4 co-expressed (A: VH MF1337, B: VH MF1122).
The target is the same in experiment [12]. Put plainly: SDS-PAGE of protein A-purified supernatant; construct expressed alone.
Experiment [13] addresses IgG1 heavy chain with CH3 construct 71 (L351D, Y349E) (human) [IgG part: P01857]. The experiment can be described thus: native MS; combination 5 co-expressed (A: VH MF1337, B: VH MF1122).
For experiment [14] the target is unchanged. Put plainly: native MS; combination 11 co-expressed (A: VH MF1337, B: VH MF1122).
The target is the same in experiment [15]. The experiment can be described thus: SDS-PAGE of protein A-purified supernatant; construct expressed alone.
In experiment [16] the target is IgG1 heavy chain with CH3 construct 73 (L351D, Y349E, L368E) (human) [IgG part: P01857]. The experiment can be described thus: native MS; combination 6 co-expressed (A: VH MF1337, B: VH MF1122).
For experiment [17] the target is unchanged. Put plainly: SDS-PAGE of protein A-purified supernatant; construct expressed alone.
In experiment [18] the target is IgG1 heavy chain with CH3 construct 74 (L351D, Y349D) (human) [IgG part: P01857]. The description is as above.
Experiment [19] shares this target. The experiment can be described thus: native MS; combination 10 co-expressed (A: VH MF1337, B: VH MF1122).
Experiment [20] deals with IgG1 heavy chain with CH3 construct 75 (L351D, Y349D, R355D) (human) [IgG part: P01857]. Put plainly: native MS; combination 9 co-expressed (A: VH MF1337, B: VH MF1122).
The target is the same in experiment [21]. Put plainly: SDS-PAGE of protein A-purified supernatant; construct expressed alone.
Experiment [22] concerns the target IgG1 heavy chain with CH3 construct 76 (L351K, L368K) (human) [IgG part: P01857]. Put plainly: native MS; combination 15 co-expressed (A: VH MF1337, B: VH MF1122).
The target is the same in experiment [23]. The experiment can be described thus: SDS-PAGE of protein A-purified supernatant; construct expressed alone.
Experiment [24] addresses IgG1 heavy chain with CH3 construct 77 (L351R) (human) [IgG part: P01857]. Put plainly: native MS; combination 16 co-expressed (A: VH MF1337, B: VH MF1122).
Experiment [25] has the same target. Put plainly: native MS; combination 1 co-expressed (A: VH MF1337, B: VH MF1122).
For experiment [26] the target is unchanged. The experiment can be described thus: SDS-PAGE of protein A-purified supernatant; construct expressed alone.
Experiment [27] concerns the target IgG1 heavy chain with CH3 construct 78 (T366E) (human) [IgG part: P01857]. Put plainly: native MS; combination 1 co-expressed (A: VH MF1337, B: VH MF1122).
Experiment [28] shares this target. The experiment can be described thus: SDS-PAGE of protein A-purified supernatant; construct expressed alone.
Experiment [29] has as its target IgG1 heavy chain with CH3 construct 79 (T366R) (human) [IgG part: P01857]. The description is as above.
The target in experiment [30] is IgG1 heavy chain with CH3 construct 80 (L351E) (human) [IgG part: P01857]. The experiment can be described thus: native MS; combination 14 co-expressed (A: VH MF1337, B: VH MF1122).
Experiment [31] deals with IgG1 heavy chain with CH3 construct 79 (T366R) (human) [IgG part: P01857]. The description is as above.
The target of experiment [32] is IgG1 heavy chain with CH3 construct 80 (L351E) (human) [IgG part: P01857]. The experiment can be described thus: native MS; combination 13 co-expressed (A: VH MF1337, B: VH MF1122).
For experiment [33] the target is unchanged. The experiment can be described thus: SDS-PAGE of protein A-purified supernatant; construct expressed alone.

The values below come from US20150139996A1.

In experiment [1], “IgG1 heavy chain with CH3 construct 2 (K392D, K409D) (from UniProt P01857-1)” yielded a Full IgG found (%) of 77% and a Half molecules found (%) of 23%. In experiment [2], this substance yielded a Full IgG found (%) of 23% and a Half molecules found (%) of 77%. In experiment [3], this substance registered a % IgG of 30.9% and a % half molecule of 69.1%.

As to “IgG1 heavy chain with CH3 construct 3 (K392D, K409D, K439D) (from UniProt P01857-1)”, in [4], the Full IgG found (%) was determined as 24% and the Half molecules found (%) turned out to be 76%. Moreover, in [5], the Full IgG found (%) is 36% and the Half molecules found (%) is 64%. Besides, in [6], the % IgG was found to be 24.5% and the % half molecule was determined as 75.5%.

In experiment [7], “IgG1 heavy chain with CH3 construct 6 (T366W) (from UniProt P01857-1)” had a Full IgG found (%) of 18% and a Half molecules found (%) of 82%. For the same substance, in [8], the % IgG came to 27.6% and the % half molecule is 72.4%.

Consider “IgG1 heavy chain with CH3 construct 7 (T366S, L368A, Y407V) (from UniProt P01857-1)”, for which, in [9], the Full IgG found (%) was determined as 42% and the Half molecules found (%) is 58%. In experiment [10], the % IgG is 58.6% and the % half molecule was found to be 41.4%.

For the substance “IgG1 heavy chain with CH3 construct 70 (L351E, Y349E) (from UniProt P01857-1)”, the % BB found in experiment [11] stood at 0%. In experiment [12], the % IgG stood at 67.8% and the % half molecule worked out at 32.2%.

Regarding “IgG1 heavy chain with CH3 construct 71 (L351D, Y349E) (from UniProt P01857-1)”, the % BB found in [13] is 1%; in experiment [14], 0%. Also, in [15], the % IgG was 79.7%. For the same substance, the % half molecule in [15] was 20.3%.

As to “IgG1 heavy chain with CH3 construct 73 (L351D, Y349E, L368E) (from UniProt P01857-1)”, in experiment [16], the % BB found is 1%. In addition, in experiment [17], the % IgG was 79.3% and the % half molecule was 20.7%.

In [18], “IgG1 heavy chain with CH3 construct 74 (L351D, Y349D) (from UniProt P01857-1)” showed a % IgG of 88.6% and a % half molecule of 11.4%. The % BB found in experiment [19] worked out at 1%.

With “IgG1 heavy chain with CH3 construct 75 (L351D, Y349D, R355D) (from UniProt P01857-1)”, the % BB found in experiment [20] is 2%. Besides, in experiment [21], the % IgG turned out to be 89.9% and the % half molecule was 10.1%.

Regarding “IgG1 heavy chain with CH3 construct 76 (L351K, L368K) (from UniProt P01857-1)”, the % BB found in experiment [22] was found to be 2.5%. In experiment [23], this substance showed a % IgG of 56.6% and a % half molecule of 43.4%.

On to “IgG1 heavy chain with CH3 construct 77 (L351R) (from UniProt P01857-1)”, for which the % BB found in experiment [24] stood at 1%; in experiment [25], 2%. In experiment [26], this substance returned a % IgG of 100%.

Take “IgG1 heavy chain with CH3 construct 78 (T366E) (from UniProt P01857-1)”: the % AA found in experiment [27] was determined as 3%. Moreover, the % AB found in [25] turned out to be 81%. In experiment [28], this substance came in with a % IgG of 44.4% and a % half molecule of 55.6%.

In [29], “IgG1 heavy chain with CH3 construct 79 (T366R) (from UniProt P01857-1)” displayed a % IgG of 29.6% and a % half molecule of 70.4%. Further, the % AB found in [30] is 38%. The % AA found in [31] came out at 4%.

As for “IgG1 heavy chain with CH3 construct 80 (L351E) (from UniProt P01857-1)”, the % BB found in [32] was 10%; in experiment [30] it was 36%. The substance further gave a % IgG in [33] of 100%.
